From the nanobody polyreactivity screen of Harvey et al. (2022)

test: yeast display, Sf9 membrane polyspecificity reagent, FACS + sequencing; frameworks hold sequencing errors
How it was run: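 Nanobodies came from a synthetic yeast display library in Saccharomyces cerevisiae BJ5465, induced with galactose for 36–48 hours and stained for 1 hour at 4 °C with 10% biotinylated, detergent-solubilized Sf9 membrane reagent. Cells were enriched on streptavidin microbeads and then FACS-sorted, with low and high (top ~1%) gates set on anti-HA fluorescence for expression and streptavidin fluorescence for reagent binding. Each polyreactivity label reflects the gate a clone came from. Genes were amplified by colony PCR, sequenced by MiSeq 2 × 250 and filtered by CDR length.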

Sequence	polyreactivity (PSR sort gate)
QLQLVESGGGIVQAGGSLRLSCAASGSIFPYNAMGWYRQAPGKEREFVAAINLSGGSTNYADSVKGRFTISRDNANYTFYLQMNSLKPEDTAVYYCNAPVVYFLPLNFDYWGQGTKVTVSS	low polyreactivity
QLQLVESGGGLDQAGCSLRLSCAASRTIITRNAMGWYRPAPGKESELVASINSGGSTYYADSVKGRFTISRDNAKNTVYLQMNSLKPDDTAVYYCAVEEDRYYYDDYDYWGQGTQVTVSS	low polyreactivity
QLQLVESGGGLDQAGGSLRLSCAASGSIFPGYAMGWYRQAPGKESELVATITWSGGSTYYADSVKGRFTISRDNAKNTVYLQMNSLKPEDTAVYYCNADSNWYYQWNYYGLYDYWGQGTQVTVSS	low polyreactivity
QLQLVESGGGLGQSGGSIRLSCAASGFIFPVYTMGRSRQAPGKERELVAAITQIGGSTHYADSVKGRFTISRDNAKNTVYLQMNSLKPEDTAVYYCNAVPSYGTEYDYWGQGTQVTVSS	low polyreactivity
QLQLVESGGGLLQAGGSLRLSCAASGSTFVSNAMGWYRQAPGKERELVATITTSGGSTYYADSVKGRFRNSRDNAKTTVYLQMNSLNPEDTAVYYCNAVYLFCYSGDLDYWGQGTQVTVSS	low polyreactivity
QLQLVESGGGLVKAGGSLRLSCAASGFIFNCYAMGWNRQAPVKEREMVARISRSGGSTYYADSVKGRFTISRDNAKNTVYLQMNSLKPEDTAVYYCAADYYWSLHQRMDYWGQGTQVTVSS	high polyreactivity
QLQLVESGGGLVQAGGRLRLSCAASGFIFHINARGWYRQAPGKEREFVAAISRSVGSTSYADTVKGRFTNSRDNAKNTVYLLMNSLKPEDTAVYYCNAALRKRKGPYDYWGQGTQVTVSS	high polyreactivity
QLQLVESGGGLVQAGGSLRFSCAASGFTFVWYVRGWYRQAPVKARELVASSTSTGSTNYADSVKGRYTISRDNAKNTVYLQMNSLKPEDTAVYYCNARGSYKRTRYGKWGQGTQVTVSS	high polyreactivity
QLQLVESGGGLVQAGGSLRLICAASGLTFVHYTMGWYRQAPGKERELVAAISWNGASTYYADSVKGRFTISRDNAKNTVDIQMNSLKPEDTAVYYCAAGYAQPRYYTDYYWGEGTQVTVSS	high polyreactivity
QLQLVESGGGLVQAGGSLRLSCAASGFTFSYYAKGWYRQAPGKERELVAAISINGGRTYYADSVKGRFTISRDNAKNTVYLQMNSLKPEDTAVYYCNAVSYAYTVRMDYWGQGTQVTVSS	high polyreactivity
QLQLVESGGGLVQAGGSLRLSCAASGFTFYLYVLGWYRQAPGKEREFVAAITGSGTSTYYADSVKGRFTISRDNAKNTVYLQMNSLKPEDTAVYYCNAKRDRYFYTVKYDYWGQGTQVTVSS	low polyreactivity
QLQLVESGGGLVQAGGSLRLSCAASGFTFYRYAKGWYRQAPGKARELVAAISWSGGTTYFADSVKGRFTISRDNAKNTVYLQMNSLTPEDTAVEYCNARFIARSGYKVDYDYWGQGTQVTVSS	high polyreactivity
QLQLVESGGGLVQAGGSLRLSCAASGGPFRPYAMGWYRQAPGKERELVAAISYTGSTYYADSVKGRFTISRDNAKNTVYLQMNSLKPEDTAVYYCAKDFWYPPRFDYWGQGTQVTVSS	low polyreactivity
QLQLVESGGGLVQAGGSLRLSCAASGGTFYTNAMGRYRQAPGKEREFVAAISWIGGSTRYADSVKGRFTISRDNAKNTVYLQMNSLKPEDTEVYFCAAEDVFWVGEYYYEMDYWGQGTQVTVSS	high polyreactivity
QLQLVESGGGLVQAGGSLRLSCAASGIIFDFYAMGWYRQAPGKERELVAAITSSGGSTYYADSVKGRFTISRDNAKNTVYLQMNSLKPEDTAVYYCAADPWFYGYYDMDYWGQGTQVTVSS	low polyreactivity
QLQLVESGGGLVQAGGSLRLSCAASGITFYGYAMGWYRQAPGKERELVAAISSRGGSTYYADSVKGRFTISRDNAKNTVYLQMNRLKPEDTAVYYCAAVYYTGEYYYWGQGTQVTVSS	high polyreactivity
QLQLVESGGGLVQAGGSLRLSCAASGLIFYDNMGWYRQAPGKERELVAAISSSGGSTSYADSVKGRFTISRDNAKNTVYLHMNSLKPEDTAVYYCAADSYPAYLGFVGFDYWGQGTQVTVSS	low polyreactivity
QLQLVESGGGLVQAGGSLRLSCAASGLTFYWYAMGWYRQAPGKERELVAAITSTGSTYYADSVKGRFTISRDNAKNTVYLQMNILKPEDTAVYYCNADFPANWGWDYDYWGQGTQVTVSS	low polyreactivity
QLQLVESGGGLVQAGGSLRLSCAASGRTFFKYVMGWYRQAPGKERELVAAISYRSGSTYYADSVKGRFTISRDNAKNTVYLQMNSLKPEDTAVYYCAKEPPPVKGDYWGQGTQVTVSS	low polyreactivity
QLQLVESGGGLVQAGGSLRLSCAASGRTFPGNAMGWYRQEPGKERELVATITWSSGRTHYADSVKGRFTISRDNAKNTVYLQMNSLKPEDTAVYYCAAKWIVAVGGFYYWGQGTQVTVSS	low polyreactivity
QLQLVESGGGLVQAGGSLRLSCAASGRTFVYNVMGWYRQAPGKERELVAAISSGGSTNYADSVKGRFTNSRDNAKNTVYLQMNRLKPEDSAVYYCNAGTLNYRYRWGHYYDSWGQGTQVTVSS	low polyreactivity
QLQLVESGGGLVQAGGSLRLSCAASGSIFKPYALRCYIQAPGKERELVAAITRSGGSTYYADSVKGRFTISRDNAKNTVYLQMNSLKPEDTAVYYCAAGNAPYYRFGSKKYGYWGQGTQVTVSS	high polyreactivity

Sequence	polyreactivity (PSR sort gate)
QLQLVESGGGLVQAGGSLRLSCAASGSILGSYAMGWYRQAPGKERELVAAITRRGSSTYYADSVKGRFTISRDNAKNTVYLQMNSLKPEDTAVYYCAVYRRWYSGLYDYWGQGTQVTVSS	high polyreactivity
QLQLVESGGGLVQAGGSLRLSCAASGSIYYEKVMGWYRQAPGKERELVAGISRSGGRTYYADSVKGRFTISRDNAKNTVYLQMNSLKPEDTAVYYCAALTPRNRYRKFDYWGQGTQVTVSS	high polyreactivity
QLQLVESGGGLVQAGGSLRLSCAASGSTFATYAMGWYRQAPGKESELVAVITRGGSTYYADSVKGRFTISRDNAKNTVYLQMNSLKPEDTAVYYCAAKAYTYYARIGFDYWGQGTQVTVSS	high polyreactivity
QLQLVESGGGLVQAGGSLRLSCAASGSTFGSNAMGWYRQAPGKERELVAAISTSSGSTYYAVSVKGRFTISRDNAMNTVYLQMNSMKPEDTAVYYCNADRHYVPYYSRPRYIPYDYWGQGTQVTVSS	high polyreactivity
QLQLVESGGGLVQAGGSLRLSCAASGSTFNYNAMGWYRQAPGKEREFVAAISRSGGSTSYADSVKGRFTISRDNAKNTVYLQMNSLKPEDTAVYYCAAYYRKTGYDYWGQGTQVTVSS	high polyreactivity
QLQLVESGGGLVQAGGSLRLSCAASGSTFSVYAMGWYRPAPGKERELVAAISSGGNTKYADSVKGRFTISRDNAKNTVYLQMNSLKPEDTAVYYCNADSQRPAYWDGYWGQGTQVTVSS	low polyreactivity
QLQLVESGGGLVQAGGSLRLSCAASGSTYATYTMGWYRQAPGKERELVAAISVSGSRTYYADSVKGRFTISRDNAKNTVYLQMNSLKPEDTAVYYCNADPPVKLYLYDYWGQGTQVTVSS	high polyreactivity
QLQLVESGGGLVQAGGSLRLSCAASVRTFQNYAMGWYRQAPGKEREFVAAITWRVGTTYYADSVKGRFTISRDNAKNTVYLQMNSLKPEDTAVYYCAARSRTVRYDYWGQGSQVTVSS	high polyreactivity
QLQLVESGGGLVQAGGSLRLSCAATGSTFYDNAMGWYRQAHGKERELVARIRWSGVRTYYADSVKGRFTISRDNAKNTVYLQMNSLKPEDTAVYYCAAGRPRPHWWSLDYYYWGQGTQVTVSS	low polyreactivity
QLQLVESGGGLVQAGGSLRLSCAGSGSIFVGYAMGWYRQAPGKARELVAAISTRGGSTYYADSVKGRFTISRDNAKNTVYLQMNSLKPEDTAVYYCAADYLDSTYGYVYGWDDYWGQGTQVTVSS	low polyreactivity
QLQLVESGGGLVQAGGSLRLSCAPSGSTFESYAMGWYRQSPGKERELVAAISSSGGSTYYADSVKGRFTISRENAMNTVYLEMYRLIPEDTAVYYCAAPTFSRYYYWGQGTQVTVSS	high polyreactivity
QLQLVESGGGLVQAGGSLRLSCASSGRIFRYNAMGWYRQAPGKERELVAVISGSGGSTYYADSVKGRFTISRDNAKNTVYLQMNSLKPEDTAVYYCAAQFHVSWYNYWGQGTQVTVSS	low polyreactivity
QLQLVESGGGLVQAGGSLRLTCAASGIIFAYNARGWYRQAPGKERELVATITDSRGSTSYADSVKGRFTISRDNAKNTVYLQMNSLKPEDTAVYYCAVLPVYWYWRNYVYLSGYDYWGQGTQVTVSS	low polyreactivity
QLQLVESGGGLVQAGGSLRLTCAASGSIIWVYAMGWYSQAPGKEWELVAAITSGVSTYYADSVKGRFTISRDHAKNTVSFQMISLKPEDTAVYYCAVVGGFRWIRMEYWGQGTQVTVSS	low polyreactivity
QLQLVESGGVLVQAGASLRLSCAATVSTFIYYAMGWYRQAPGKEREVVAAISKRGGNTYYADSVKGRFTISRDNAKNTVYLQMNSLKPEDTAVYYCAARVYGTSRRYYSWGQGTQVTVSS	high polyreactivity
QLQLVESGRGLVQAGGSLRISCDASGSTFRRNAMGWYRPAPGKERELVAAITRGGGSTYYADSVKGRLTISRDNAKNTVYLQMNSLKPDDTAVYYCAAQISATRETMDYWGQGTQVTVSS	high polyreactivity
QLQLVESGRGLVQAGGSLRLSCAASGLIFGNYAKRSYRQPPGKESELVAAITSTGITYYADSVKGRFTISRDNAKNTVYLQMTSLKPEDTAVYYCAAASRFHPDRGGYWGQGTQVTVSS	low polyreactivity
QLQLVESGRGLVQAGVSLRLSCAASGFIFEDYAMGCYRTAPGNDRELVAAISRRGGSTYYADSVKGRFTISRYNAKKTVYLQMNSLKPEDTAVYYCAAYYPYSGKGGYDYWGQGTQVTVSS	high polyreactivity
QLQLVETGGGLVQAGGSLRLSCAASGRIFQYYVMGWYRQAPGKERELVAAITSGGSTYYADSVKGRFTISRDNAKNTVYLQMNSLKPEDTAVYYCAAGYWYNFDYWGQGTQVTVSS	high polyreactivity
QLQLVQSGGGLVQAGGSLRLSCAASGRIFFKYVKGWYRQAPGKERELVAAISSAGSTYYADSVKRRFTISRDNAKNTVYLQMNSLQPEDTAVYYCATYYSAINYGWSKTILYDYWGQGTQVTVSS	low polyreactivity
QLQRVESGGGLVQAGGSLRLSCAASGITYRYYVMGWYRQAPGKETQLVAAITSGVSTYYADSVKGRFTISRDNAKNTVYLELNSLKPEDTAVDYCAADEPWTYYLYGKMYYWGQGTQVTVSS	high polyreactivity
